Reference: patent US20230235027A1 (US Dept. of Health and Human Services, published 2023)
Where “and” joins values, the source holds several entries; their conditions need not be identical. Equal entries are not always repeated.

Tests used:
[1] = biological target: T1, SARS-CoV-2 RBD mutant V367F (SARS-CoV-2, UniProt P0DTC2 319-541); test: competition ELISA, RBD variant coated, competitor biotinylated ACE2
T1 construct: bought variant RBD; also called SPD-S52H4, ACRO Biosystems

[2] = biological target: T2, SARS-CoV-2 RBD mutant N354D/D364Y (SARS-CoV-2, UniProt P0DTC2 319-541); test: as above
T2 construct: bought variant RBD; also called SPD-S52H3, ACRO Biosystems

[3] = biological target: T3, SARS-CoV-2 RBD mutant W436R (SARS-CoV-2, UniProt P0DTC2 319-541); test: as above
T3 construct: bought variant RBD; also called #SPD-552H7, ACRO Biosystems

[4] = biological target: T1, SARS-CoV-2 RBD mutant V367F; test: direct binding to RBD variant (FIG. 7B); format not described further
[5] = biological target: T2, SARS-CoV-2 RBD mutant N354D/D364Y; test: as above
[6] = biological target: T3, SARS-CoV-2 RBD mutant W436R; test: as above

B1: NIH-CoVnb-112 (VHH)
VHH: DVQLQESGGGLVQPGGSLRLSCAASGLTLDYYAIGWFRQAPGKEREGVSCISSSDGSTYYADSVKGRFTTSRDNAKNTVYLQMNSLKPEDTAVYYCAAVPSTYYSGTYYYTCHPGGMDYWGKGTQVTVSS
[1]
  EC50: ~0.02 µg/mL and ~1.11 nM
[2]
  EC50: ~1.11 nM and ~0.02 µg/mL
[3]
  EC50: ~0.02 µg/mL and ~1.11 nM
[4]
  EC50: ~0.01 µg/mL
[5]
  EC50: ~0.01 µg/mL
[6]
  EC50: ~0.01 µg/mL
